Results from patent US20210009703A1.

Biological target: cynomolgus CD25 expressed on cells (Cynomolgus monkey) (UniProt H6WS54)
Assay: flow cytometry on cyno-CD25-CHO-S cells, 100 nM antibody, anti-human R-PE

MFI: 82
Substance: IgG1 Isotype (antibody)
